Laboratory results published in paper PMC3424240, “Rbm15-Mkl1 Interacts with the Setd1b Histone H3-Lys4 Methyltransferase via a SPOC Domain That Is Required for Cytokine-Independent Proliferation” (PLoS ONE, 2012).

Molecular target: T1, His-SPOC domain (aa 782–977 of Rbm15) (human, UniProt Q96T37 782-977)
T1 construct: cloned in the pBAD/His vector; also called His-tagged Rbm15 SPOC domain; source: E. coli, purified (Ni-NTA agarose), dialyzed against PBS
T1 sequence (looked up): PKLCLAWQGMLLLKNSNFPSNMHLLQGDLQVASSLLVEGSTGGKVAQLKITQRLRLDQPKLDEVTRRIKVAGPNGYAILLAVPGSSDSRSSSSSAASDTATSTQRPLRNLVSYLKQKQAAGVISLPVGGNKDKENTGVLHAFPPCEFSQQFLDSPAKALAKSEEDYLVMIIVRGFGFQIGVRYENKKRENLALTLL
Test: pull-down; GST pull-down of purified proteins on glutathione-agarose; 20 mM Tris-HCl pH 8.0, 150 mM NaCl, 2 mM EDTA, 0.2% NP-40, 0.5% deoxycholate; 2 h, then beads 1 h; Western blotting and Coomassie staining
Settings: both partners purified

B1: GST-LSD (aa 542–628 of Setd1b) (domain or fragment, human, UniProt Q9UPS6 542-628, looked up)
chain: PLAPFGTNSQPGFRGPTPPSSRPSSTGLEDISPTPLPDSDEDEELDLGLGPRPPPEPGPPDPAGLLSQTAEVALDLVGDRTPTSEKM
notes: human Setd1b LSD domain, residues 542-628; cloned in the pGEX 4T vector; also called GST-Setd1b LSD domain; source: E. coli, purified
B1: binds.
